Residue numbers refer to the chain shown, from its start.
How the values were obtained:
Settings in all cases: label: Alexa680 at 5' and 3'
hPUF_MT(R7_IRG) = molecular target: T1, hPUF_MT(R7_IRG) (UniProt Q14671 SEQ:1-342); assay: EMSA; comparable to WT
T1 chain: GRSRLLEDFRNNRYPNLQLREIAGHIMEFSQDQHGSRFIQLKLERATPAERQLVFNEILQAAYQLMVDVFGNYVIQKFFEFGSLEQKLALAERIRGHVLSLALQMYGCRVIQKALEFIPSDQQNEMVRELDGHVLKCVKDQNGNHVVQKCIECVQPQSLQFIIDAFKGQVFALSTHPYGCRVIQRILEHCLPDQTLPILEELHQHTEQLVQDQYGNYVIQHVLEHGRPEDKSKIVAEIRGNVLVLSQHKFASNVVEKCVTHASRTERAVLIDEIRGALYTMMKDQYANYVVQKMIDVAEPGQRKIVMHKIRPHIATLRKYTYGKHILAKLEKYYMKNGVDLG

[1] = molecular target: T2, hPUF_MT(R8_N12S,Q16E, R3→R5, R4→R6) (R8 repeat N12S,Q16E); assay: EMSA; binds G exclusively
T2 chain: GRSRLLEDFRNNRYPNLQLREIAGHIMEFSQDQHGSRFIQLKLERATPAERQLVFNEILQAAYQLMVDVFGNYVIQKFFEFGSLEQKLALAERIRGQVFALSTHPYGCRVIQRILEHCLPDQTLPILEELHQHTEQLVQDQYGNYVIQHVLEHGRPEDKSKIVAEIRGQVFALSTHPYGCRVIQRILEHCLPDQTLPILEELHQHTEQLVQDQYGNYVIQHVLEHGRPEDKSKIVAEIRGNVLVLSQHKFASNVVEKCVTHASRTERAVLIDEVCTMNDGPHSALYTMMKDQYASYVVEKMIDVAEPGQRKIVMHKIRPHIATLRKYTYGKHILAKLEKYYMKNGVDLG

[2] = molecular target: T3, hPUF_MT(R2_N12S,Q16E, R3→R5, R4→R6) (R2 repeat N12S,Q16E); assay: EMSA; binds G exclusively
T3 chain: T2 chain with N72S, Q76E, S295N, E299Q

## CCAGAAUUGUAUAUAUUCG (ssRNA) [OTS-1511]
hPUF_MT(R7_IRG)
  binding result: binds
[1]
  binding result: no binding
[2]
  binding result: no binding

Source: patent US11472855, “RNA-binding protein” (Panitch Schwarze Belisario & Nadel LLP)
